{"source": "patent US12558350B2", "about": "“Compositions and methods for treatment” (Bausch + Lomb Ireland Limited, priority 2005, dated 2026)", "key": {"LFA-1 [1]": {"molecular_target": "T1, LFA-1 (Homo sapiens, UniProt P05107+P20701)", "T1 construct": "made in house; host or cells: human 293 cells", "T1 sequence (P20701 26-1170)": "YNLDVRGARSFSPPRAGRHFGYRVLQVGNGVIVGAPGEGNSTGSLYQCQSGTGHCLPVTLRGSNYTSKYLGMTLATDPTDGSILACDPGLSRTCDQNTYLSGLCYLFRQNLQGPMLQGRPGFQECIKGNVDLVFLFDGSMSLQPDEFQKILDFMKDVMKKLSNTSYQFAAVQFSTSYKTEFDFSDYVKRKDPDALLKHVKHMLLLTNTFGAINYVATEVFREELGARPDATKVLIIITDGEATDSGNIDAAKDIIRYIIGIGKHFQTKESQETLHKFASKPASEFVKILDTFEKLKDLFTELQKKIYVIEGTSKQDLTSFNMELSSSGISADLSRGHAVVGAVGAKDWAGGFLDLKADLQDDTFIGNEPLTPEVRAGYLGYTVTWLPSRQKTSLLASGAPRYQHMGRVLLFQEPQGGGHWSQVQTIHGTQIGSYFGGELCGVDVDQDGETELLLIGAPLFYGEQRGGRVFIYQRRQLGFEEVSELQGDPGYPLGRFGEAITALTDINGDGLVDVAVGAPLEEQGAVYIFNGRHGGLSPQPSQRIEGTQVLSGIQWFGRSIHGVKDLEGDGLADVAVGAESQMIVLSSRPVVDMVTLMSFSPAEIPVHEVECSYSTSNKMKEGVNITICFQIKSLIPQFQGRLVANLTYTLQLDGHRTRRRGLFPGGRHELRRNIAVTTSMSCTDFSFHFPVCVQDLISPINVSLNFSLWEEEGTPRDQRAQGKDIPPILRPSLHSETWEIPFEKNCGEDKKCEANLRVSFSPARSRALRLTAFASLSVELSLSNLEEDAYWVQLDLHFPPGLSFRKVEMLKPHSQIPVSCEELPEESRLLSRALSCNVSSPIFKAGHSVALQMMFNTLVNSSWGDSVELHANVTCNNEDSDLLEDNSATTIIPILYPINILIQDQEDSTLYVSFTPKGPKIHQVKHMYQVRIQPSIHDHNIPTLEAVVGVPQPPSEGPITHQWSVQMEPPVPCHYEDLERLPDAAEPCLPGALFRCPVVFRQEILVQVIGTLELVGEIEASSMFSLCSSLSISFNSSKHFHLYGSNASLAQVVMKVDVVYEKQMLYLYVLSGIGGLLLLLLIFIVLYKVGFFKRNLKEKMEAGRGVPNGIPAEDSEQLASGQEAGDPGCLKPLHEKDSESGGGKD", "T1 sequence (P05107 23-769)": "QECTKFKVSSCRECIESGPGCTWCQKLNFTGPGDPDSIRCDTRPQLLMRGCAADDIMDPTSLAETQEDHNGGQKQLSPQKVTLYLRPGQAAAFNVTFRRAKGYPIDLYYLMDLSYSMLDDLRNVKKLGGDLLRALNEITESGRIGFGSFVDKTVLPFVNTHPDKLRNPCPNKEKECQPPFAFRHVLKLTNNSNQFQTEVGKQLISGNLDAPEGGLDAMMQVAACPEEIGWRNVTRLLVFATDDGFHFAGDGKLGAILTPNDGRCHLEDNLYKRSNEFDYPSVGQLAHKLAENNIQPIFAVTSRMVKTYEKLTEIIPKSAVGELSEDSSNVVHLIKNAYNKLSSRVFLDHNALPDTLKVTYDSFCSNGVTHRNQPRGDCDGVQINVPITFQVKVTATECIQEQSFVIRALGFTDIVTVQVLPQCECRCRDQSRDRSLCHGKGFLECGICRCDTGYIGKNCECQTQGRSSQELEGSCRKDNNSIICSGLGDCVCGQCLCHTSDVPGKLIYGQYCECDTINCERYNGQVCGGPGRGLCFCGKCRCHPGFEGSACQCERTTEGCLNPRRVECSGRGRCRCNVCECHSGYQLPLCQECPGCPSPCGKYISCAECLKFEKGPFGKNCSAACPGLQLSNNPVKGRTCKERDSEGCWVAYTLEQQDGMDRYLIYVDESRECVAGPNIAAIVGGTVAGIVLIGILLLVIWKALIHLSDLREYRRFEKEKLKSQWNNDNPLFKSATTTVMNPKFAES", "assay": "LFA-1/small molecule ligand binding ELISA", "settings": "FIG. 10B, D, F", "procedure": "(§1) Pharmacologic Analysis of Drug-Receptor Interaction, Lippincott-Raven, Philadelphia). […] The order of antagonist concentrations was, -[…]-(lowest added antagonist concentration), -Δ-, -μ-, -♦-, -▪-, -σ- to -λ-(highest antagonist concentration). The fits of the data are shown as the solid lines. The data shown are from one plate and are representative of a minimum of two experiments.\n(§2) In all cases the ligand was added concurrently with the antagonist. The plates were incubated for 6 h at 37° C. to approach equilibrium conditions after antagonist and ligand addition, before wash and addition of the detection antibody. The EC50 values for each curve were determined by fitting with a four parameter model as described above. […] The slopes of the plots of the Log (Conc. ratio −1) vs. Antagonist concentration are calculated by fitting the line to the linear equation, Y=A+BX."}, "LFA-1 [2]": {"molecular_target": "T1, LFA-1", "assay": "LFA-1/small molecule ELISA, antagonist competition with compound 2B", "settings": "25 nM compound 2B; FIG. 8B; read-out: IC50, inhibition of binding of compound 2B to LFA-1", "protocol": "96-well plates were coated with 5 μg/ml (33.3 nM) mouse anti-human 82 integrin (a non-function blocking antibody) in phosphate-buffered saline (PBS) overnight at 4° C. The plates were blocked with assay buffer (20 mM Hepes, pH 7.2, 140 mM NaCl, 1 mM MnCl2, 0.5% bovine serum albumin (BSA) and 0.05% Tween-20) for 1 hour at room temperature. After washing in buffer (50 mM Tris-HCl, pH 7.5, 100 mM NaCl, 1 mM MnCl2, and 0.05% Tween-20), 8 nM LFA-1 (LFA-1/ICAM-1 ELISA) or 2 nM LFA-1 (LFA-1/small molecule ELISA) were added, followed by incubation for 1 h at 37° C. […] In the LFA-1/small molecule ELISA, the diluted antagonists and 25 nM compound 2B were added concurrently to the plates, followed by a 2-hour incubation at 37° C. Sheep anti-fluorescein-HRP was added after a wash and incubated for one hour at 37° C. For both assays, after washing, the bound HRP-conjugated antibodies were detected by addition of tetramethylbenzidine (TMB) followed by measurement of the absorbance of the product at 450 nm after the addition of 1 M H3PO4 to stop the reaction. The IC50 values for each curve were determined by fitting to the four-parameter equation described above using KaleidaGraph software."}, "LFA-1/ICAM-1": {"molecular_target": "T2, LFA-1/ICAM-1 (Homo sapiens, UniProt P05107+P20701)", "T2 construct": "made in house; host or cells: human 293 cells", "T2 sequence (P20701 26-1170)": "as the sequence (P20701 26-1170) above", "T2 sequence (P05107 23-769)": "as the sequence (P05107 23-769) above", "assay": "LFA-1/ICAM-1 ligand binding ELISA with Schild analysis", "excerpt": "as §1\nThis model is based upon the assumptions that equiactive responses in an assay are the result of equivalent occupancy of receptor by ligand and that maximal binding is unchanged by the presence of antagonist. In a Schild analysis, the dose ratio is the ratio of the EC50 values in the presence and absence of antagonist and is a measure of the ligand concentrations leading to equiactive responses. This dose ratio was determined for each concentration of antagonist and the Schild regressions were plotted as shown in FIG. 11.\nas §2"}}, "data": [{"molecule": "sICAM-1: truncated form of native ICAM-1 without the transmembrane and cytoplasmic domains, with intact LFA-1 binding epitope; R&D Systems (protein, UniProt P05362 28-480, looked up, extracellular domain, R&D Systems) extracellular domain: QTSVSPSKVILPRGGSVLVTCSTSCDQPKLLGIETPLPKKELLLPGNNRKVYELSNVQEDSQPMCYSNCPDGQSTAKTFLTVYWTPERVELAPLPSWQPVGKNLTLRCQVEGGAPRANLTVVLLRGEKELKREPAVGEPAEVTTTVLVRRDHHGANFSCRTELDLRPQGLELFENTSAPYQLQTFVLPATPPQLVSPRVLEVDTQGTVVCSLDGLFPVSEAQVHLALGDQRLNPTVTYGNDSFSAKASVSVTAEDEGTQRLTCAVILGNQSQETLQTVTIYSFPAPNVILTKPEVSEGTEVTVKCEAHPRAKVTLNGVPAQPLGPRAQLLLKATPEDNGRSFSCSATLEVAGQLIHKNQTRELRVLYGPRLDERDCPGNWTWPENSQQTPMCQAWGNPLPELKCLKDGTFPLPIGESVTVTRDLEGTYLCRARSTQGEVTRKVTVNVLSPRYE", "values": [{"measurement": "effect of increasing antagonist concentration on compound 2B binding curves", "setting": "LFA-1 [1]", "result": "showed a similar effect"}, {"measurement": "IC50", "setting": "LFA-1 [2]", "result": 1200, "unit": "nM"}, {"measurement": "effect of increasing antagonist concentration on ICAM-1-Ig binding curves", "setting": "LFA-1/ICAM-1; FIG. 10A, C, E", "result": "shifted the ICAM-1-Ig binding curves rightward to higher EC50 values"}, {"measurement": "slope of Schild regression", "setting": "LFA-1/ICAM-1; ligand ICAM-1-Ig, FIG. 11", "result": 1.26}, {"measurement": "y-intercept of Schild regression", "setting": "LFA-1/ICAM-1; ligand ICAM-1-Ig, FIG. 11", "result": 8.51}]}]}
